Residue numbers refer to the chain shown, from its start. Read-outs that look alike come from different tables or passages of the source. One block for each binder: values may come before it.
How the values were obtained:
[1] = molecular target: T1, cynomolgus IL-36R overexpressed on 293T-CynoIL36R-NFκB cells (cynomolgus monkey); experiment: FACS on 293T-CynoIL36R-NFκB cells, ratio of MFI to background MFI
T1 construct: Entry includes the signal peptide; also called monkey IL-36R
T1 chain: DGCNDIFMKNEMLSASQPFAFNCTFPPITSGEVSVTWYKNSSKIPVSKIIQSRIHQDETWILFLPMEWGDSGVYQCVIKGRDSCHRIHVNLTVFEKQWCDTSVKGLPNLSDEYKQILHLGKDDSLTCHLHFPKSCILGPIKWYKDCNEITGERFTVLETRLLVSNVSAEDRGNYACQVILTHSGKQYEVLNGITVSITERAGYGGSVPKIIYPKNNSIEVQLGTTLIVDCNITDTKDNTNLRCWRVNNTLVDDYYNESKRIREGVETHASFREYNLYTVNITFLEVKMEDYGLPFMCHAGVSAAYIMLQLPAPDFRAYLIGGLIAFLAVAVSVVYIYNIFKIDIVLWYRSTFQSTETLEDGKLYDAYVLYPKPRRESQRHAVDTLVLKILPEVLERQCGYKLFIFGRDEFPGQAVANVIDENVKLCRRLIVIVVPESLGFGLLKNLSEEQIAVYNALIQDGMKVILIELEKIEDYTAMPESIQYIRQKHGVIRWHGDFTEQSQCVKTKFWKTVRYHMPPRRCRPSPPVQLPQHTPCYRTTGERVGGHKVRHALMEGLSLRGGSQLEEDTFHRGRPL
Protocol: After the cells was washed with PBS, the cells were resuspended with 100 μL of PBS and then the fluorescence signal was detected using a flow cytometer (BD, Accuri C6). […] The ratio was the ratio of mean fluorescence intensity (MFI) of the experimental group/the background MFI, and the resulting data were analyzed using GraphPad Prism.
Affinity, binding and blocking assays for humanized antibodies hz72C1-1.1, hz72C1-1.2, hz72C1-1.3, hz72C1-2.1, hz72C1-2.2 and hz72C1-2.3 as well as hz84C4-1.1, hz84C4-1.2, hz84C4-1.3, hz84C4-1.4, hz84C4-1.5, hz84C4-2.1, hz84C4-2.2, hz84C4-2.3, hz84C4-2.4 and hz84C4-2.5 were performed according to the methods of Example 4, Example 5. Example 6, Example 7 and Example 8.

[2] = molecular target: T2, IL-36R naturally expressed on OVCAR8 cells and on normal human epidermal keratinocytes (NHK cells) (human, UniProt Q9HB29 20-575); experiment: cell-based or functional assay
T2 sequence (looked up): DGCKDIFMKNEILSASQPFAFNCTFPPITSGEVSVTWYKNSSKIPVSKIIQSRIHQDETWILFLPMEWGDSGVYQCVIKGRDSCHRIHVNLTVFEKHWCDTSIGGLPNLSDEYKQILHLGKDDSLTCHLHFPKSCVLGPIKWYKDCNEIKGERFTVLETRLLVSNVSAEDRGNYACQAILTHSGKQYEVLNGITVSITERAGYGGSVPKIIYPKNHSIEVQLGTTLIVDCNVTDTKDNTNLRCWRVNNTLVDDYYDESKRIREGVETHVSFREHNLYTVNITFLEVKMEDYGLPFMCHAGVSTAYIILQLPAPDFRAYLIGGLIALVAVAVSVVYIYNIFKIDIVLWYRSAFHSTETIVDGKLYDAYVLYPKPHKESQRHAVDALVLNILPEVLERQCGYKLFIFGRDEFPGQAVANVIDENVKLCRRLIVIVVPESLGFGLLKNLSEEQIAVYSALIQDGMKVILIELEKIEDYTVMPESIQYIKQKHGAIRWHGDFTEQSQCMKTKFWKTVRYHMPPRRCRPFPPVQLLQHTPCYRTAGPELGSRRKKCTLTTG

[3] = molecular target: T2, IL-36R naturally expressed on OVCAR8 …; experiment: cell-based or functional assay; remark: listed apart in the source
[4] = molecular target: T2, IL-36R naturally expressed on OVCAR8 …; experiment: cell-based or functional assay; remark: listed apart in the source
[5] = molecular target: T2, IL-36R naturally expressed on OVCAR8 …; experiment: cell-based or functional assay; remark: listed apart in the source

B1: hz84C4-1.1 (antibody, human IgG4 S228P, kappa, V domains shown)
VH: QVQLVQSGAEVKKPGASVKVSCKASGYFFTSYWMNWVRQAPGQGLEWMGMIHPYDSETRYAQKFQGRVTMTVDKSTSTVYMELSSLRSEDTAVYYCASSTTAFAYWGQGTLVTVSS
VL: DIQMTQSPSSLSASVGDRVTITCRASQDIGNALNWYQQKPGKAPKRLIYATSSLDPGVPSRFSGSRSGTDFTLTISSLQPEDFATYYCLQYASSPYTFGQGTKVEIKR
notes: Humanized, human IgG4 / kappa
EC50 [1]: 18 nM
IC50 (M); hIL36α; IL-8 production [2]: 6.38e-12 M
IC50 (M); hIL36αβγ; IL-8 production [2]: 6.51e-12 M
IC50 (M); hIL36β; IL-8 production [2]: 7.61e-12 M
IC50 (M); hIL36γ; IL-8 production [2]: 4.77e-12 M
Maximum inhibition rate %; hIL36α; IL-8 production [2]: 99.7%
Maximum inhibition rate %; hIL36αβγ; IL-8 production [2]: 99.9%
Maximum inhibition rate %; hIL36β; IL-8 production [2]: 99.3%
Maximum inhibition rate %; hIL36γ; IL-8 production [2]: 99.6%
IC50 (M); hIL36α; IL-8 production [3]: 2.62e-11 M
IC50 (M); hIL36αβγ; IL-8 production [3]: 5.25e-11 M
IC50 (M); hIL36β; IL-8 production [3]: 2.27e-11 M
IC50 (M); hIL36γ; IL-8 production [3]: 1.44e-11 M
Maximum inhibition rate %; hIL36α; IL-8 production [3]: 103%
Maximum inhibition rate %; hIL36αβγ; IL-8 production [3]: 93.7%
Maximum inhibition rate %; hIL36β; IL-8 production [3]: 103%
Maximum inhibition rate %; hIL36γ; IL-8 production [3]: 103%

B3: hz72C1-1.2 (antibody, human IgG4 S228P, kappa)
heavy: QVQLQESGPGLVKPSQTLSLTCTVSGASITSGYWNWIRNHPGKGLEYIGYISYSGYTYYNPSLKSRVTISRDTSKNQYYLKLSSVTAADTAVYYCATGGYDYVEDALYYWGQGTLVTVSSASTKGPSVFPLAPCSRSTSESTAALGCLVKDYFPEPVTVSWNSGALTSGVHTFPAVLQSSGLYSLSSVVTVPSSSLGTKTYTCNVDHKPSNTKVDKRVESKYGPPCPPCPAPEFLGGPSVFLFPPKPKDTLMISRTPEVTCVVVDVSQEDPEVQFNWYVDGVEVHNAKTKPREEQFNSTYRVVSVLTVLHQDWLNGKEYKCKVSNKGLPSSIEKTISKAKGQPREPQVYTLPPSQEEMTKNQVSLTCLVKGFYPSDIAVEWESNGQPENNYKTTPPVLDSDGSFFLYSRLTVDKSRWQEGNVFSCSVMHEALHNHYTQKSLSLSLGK
light: DIQMTQSPSSLSASVGDRVTITCRASSNVRYMYWYQQKPGKAPKLWIYLTSNLASGVPSRFSGSGSGTSYTLTISSLQPEDFATYYCQQFTTSPYTFGQGTKLEIKRTVAAPSVFIFPPSDEQLKSGTASVVCLLNNFYPREAKVQWKVDNALQSGNSQESVTEQDSKDSTYSLSSTLTLSKADYEKHKVYACEVTHQGLSSPVTKSFNRGEC
notes: Humanized, human IgG4 / kappa
IC50 (M); hIL36α; IL-8 production [4]: 6.21e-11 M
IC50 (M); hIL36αβγ; IL-8 production [4]: 8.82e-11 M
IC50 (M); hIL36β; IL-8 production [4]: 2.61e-11 M
IC50 (M); hIL36γ; IL-8 production [4]: 1.38e-11 M
Maximum inhibition rate %; hIL36α; IL-8 production [4]: 98.9%
Maximum inhibition rate %; hIL36αβγ; IL-8 production [4]: 97.9%
Maximum inhibition rate %; hIL36β; IL-8 production [4]: 98.2%
Maximum inhibition rate %; hIL36γ; IL-8 production [4]: 98.2%
IC50 (M); hIL36α; IL-8 production [5]: 1.19e-10 M
IC50 (M); hIL36αβγ; IL-8 production [5]: 3.29e-10 M
IC50 (M); hIL36β; IL-8 production [5]: 4.33e-10 M
IC50 (M); hIL36γ; IL-8 production [5]: 1.14e-10 M
Maximum inhibition rate %; hIL36α; IL-8 production [5]: 96.1%
Maximum inhibition rate %; hIL36αβγ; IL-8 production [5]: 89.6%
Maximum inhibition rate %; hIL36β; IL-8 production [5]: 84.7%
Maximum inhibition rate %; hIL36γ; IL-8 production [5]: 85.7%

Now from value to binder:

EC50 [1]: 37.3 nM
IC50 (M); hIL36α; IL-8 production [2]: 8.5e-12 M
IC50 (M); hIL36αβγ; IL-8 production [2]: 7.75e-12 M
IC50 (M); hIL36β; IL-8 production [2]: 1.6e-12 M
IC50 (M); hIL36γ; IL-8 production [2]: 8.99e-12 M
Maximum inhibition rate %; hIL36α; IL-8 production [2]: 99.1%
Maximum inhibition rate %; hIL36αβγ; IL-8 production [2]: 99.2%
Maximum inhibition rate %; hIL36β; IL-8 production [2]: 98.9%
Maximum inhibition rate %; hIL36γ; IL-8 production [2]: 99.5%
IC50 (M); hIL36α; IL-8 production [3]: 1.02e-10 M
IC50 (M); hIL36αβγ; IL-8 production [3]: 6.67e-11 M
IC50 (M); hIL36β; IL-8 production [3]: 9.53e-12 M
IC50 (M); hIL36γ; IL-8 production [3]: 3.42e-12 M
Maximum inhibition rate %; hIL36α; IL-8 production [3]: 92.5%
Maximum inhibition rate %; hIL36αβγ; IL-8 production [3]: 82.8%
Maximum inhibition rate %; hIL36β; IL-8 production [3]: 91.2%
Maximum inhibition rate %; hIL36γ; IL-8 production [3]: 98.3%
B2: hz84C4-1.2 (antibody, human IgG4 S228P, kappa, V domains shown)
VH: B1 VH with M50Y
VL: B1 VL
notes: Humanized, human IgG4 / kappa

IC50 (M); hIL36α; IL-8 production [4]: 4.08e-11 M
IC50 (M); hIL36αβγ; IL-8 production [4]: 8.4e-11 M
IC50 (M); hIL36β; IL-8 production [4]: 1.6e-11 M
IC50 (M); hIL36γ; IL-8 production [4]: 2.42e-11 M
Maximum inhibition rate %; hIL36α; IL-8 production [4]: 99%
Maximum inhibition rate %; hIL36αβγ; IL-8 production [4]: 97.7%
Maximum inhibition rate %; hIL36β; IL-8 production [4]: 98.4%
Maximum inhibition rate %; hIL36γ; IL-8 production [4]: 98.3%
IC50 (M); hIL36α; IL-8 production [5]: 7.09e-11 M
IC50 (M); hIL36αβγ; IL-8 production [5]: 3.82e-10 M
IC50 (M); hIL36β; IL-8 production [5]: 2.4e-10 M
IC50 (M); hIL36γ; IL-8 production [5]: 1.03e-10 M
Maximum inhibition rate %; hIL36α; IL-8 production [5]: 97.3%
Maximum inhibition rate %; hIL36αβγ; IL-8 production [5]: 90.3%
Maximum inhibition rate %; hIL36β; IL-8 production [5]: 90.3%
Maximum inhibition rate %; hIL36γ; IL-8 production [5]: 93.5%
B4: hz72C1-1.3 (antibody, human IgG4 S228P, kappa)
heavy: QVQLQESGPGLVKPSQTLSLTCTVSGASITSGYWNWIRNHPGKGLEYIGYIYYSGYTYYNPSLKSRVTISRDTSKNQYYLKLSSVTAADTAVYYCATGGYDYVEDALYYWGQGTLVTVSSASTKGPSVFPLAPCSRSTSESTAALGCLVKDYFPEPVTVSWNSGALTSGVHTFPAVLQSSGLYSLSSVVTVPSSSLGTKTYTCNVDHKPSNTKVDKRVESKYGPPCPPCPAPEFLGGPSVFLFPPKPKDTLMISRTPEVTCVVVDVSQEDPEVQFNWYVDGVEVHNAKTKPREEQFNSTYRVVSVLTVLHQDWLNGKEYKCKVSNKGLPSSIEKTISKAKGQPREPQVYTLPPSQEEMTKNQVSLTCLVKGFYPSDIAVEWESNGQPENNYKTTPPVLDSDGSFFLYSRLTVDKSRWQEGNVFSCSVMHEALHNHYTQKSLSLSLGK
light: B3 light
notes: Humanized, human IgG4 / kappa

Source: patent US20240270857A1 (CHIA TAI TIANQING PHARMACEUTICAL GROUP, published 2024)
